6 molecules from patent publication US20240270846A1 (published 2024) can be followed below.

Sequences and labels used below:
B1: CE115HA000/GLS3000 S56L one-arm antibody (antibody, human IgG1, kappa, L234A L235A, N297A, name in Kabat numbering)
heavy: QVQLVESGGGVVQPGRSLRLSCAASGFTFSNAWMHWVRQAPGKGLEWVAQIKAKSNNYATYYAESVKGRFTISRDDSKNSLYLQMNSLKTEDTAVYYCRYVHYGAYYGVDAWGQGTTVTVSSASTKGPSVFPLAPSSKSTSGGTAALGCLVKDYFPEPVTVSWNSGALTSGVHTFPAVLQSSGLYSLSSVVTVPSSSLGTQTYICNVNHKPSNTKVDKKVEPKSCDKTHTCPPCPAPEAAGGPSVFLFPPKPKDTLMISRTPEVTCVVVDVSHEDPEVKFNWYVDGVEVHNAKTKPREEQYASTYRVVSVLTVLHQDWLNGKEYKCKVSNKALPAPIEKTISKAKGQPREPQVYTLPPSRCELTKNQVSLSCAVKGFYPSDIAVEWESNGQPENNYKTTPPVLDSDGSFFLVSKLTVDKSRWQQGNVFSCSVMHEALHNHYTQKSLSLSPDYKDDDDK
chain: EPKSSDKTHTCPPCPAPELLGGPSVFLFPPKPKDTLMISRTPEVTCVVVDVSHEDPEVKFNWYVDGVEVHNAKTKPREEQYNSTYRVVSVLTVLHQDWLNGKEYKCKVSNKALPAPIEKTISKAKGQPREPQVCTLPPSRDELTKNQVSLWCLVKGFYPSDIAVEWESNGQPENNYKTTPPVLDSDGSFFLYSKLTVDKSRWQQGNVFSCSVMHEALHNRYTQKSLSLSP
light: DIVMTQSPLSLPVTPGEPASISCRSSQSLVHSNRNTYLHWYQQKPGQAPRLLIYKVSNRFLGVPDRFSGSGSGTDFTLKISRVEAEDVGVYYCGQGTQVPYTFGQGTKLEIKRTVAAPSVFIFPPSDEQLKSGTASVVCLLNNFYPREAKVQWKVDNALQSGNSQESVTEQDSKDSTYSLSSTLTLSKADYEKHKVYACEVTHQGLSSPVTKSFNRGEC
notes: one-arm IgG1
B2: CE115HA000/GLS3000 S56N one-arm antibody (antibody, human IgG1, kappa, L234A L235A, N297A, name in Kabat numbering)
heavy: QVQLVESGGGVVQPGRSLRLSCAASGFTFSNAWMHWVRQAPGKGLEWVAQIKAKSNNYATYYAESVKGRFTISRDDSKNSLYLQMNSLKTEDTAVYYCRYVHYGAYYGVDAWGQGTTVTVSSASTKGPSVFPLAPSSKSTSGGTAALGCLVKDYFPEPVTVSWNSGALTSGVHTFPAVLQSSGLYSLSSVVTVPSSSLGTQTYICNVNHKPSNTKVDKKVEPKSCDKTHTCPPCPAPEAAGGPSVFLFPPKPKDTLMISRTPEVTCVVVDVSHEDPEVKFNWYVDGVEVHNAKTKPREEQYASTYRVVSVLTVLHQDWLNGKEYKCKVSNKALPAPIEKTISKAKGQPREPQVYTLPPSRCELTKNQVSLSCAVKGFYPSDIAVEWESNGQPENNYKTTPPVLDSDGSFFLVSKLTVDKSRWQQGNVFSCSVMHEALHNHYTQKSLSLSPDYKDDDDK
chain: EPKSSDKTHTCPPCPAPELLGGPSVFLFPPKPKDTLMISRTPEVTCVVVDVSHEDPEVKFNWYVDGVEVHNAKTKPREEQYNSTYRVVSVLTVLHQDWLNGKEYKCKVSNKALPAPIEKTISKAKGQPREPQVCTLPPSRDELTKNQVSLWCLVKGFYPSDIAVEWESNGQPENNYKTTPPVLDSDGSFFLYSKLTVDKSRWQQGNVFSCSVMHEALHNRYTQKSLSLSP
light: DIVMTQSPLSLPVTPGEPASISCRSSQSLVHSNRNTYLHWYQQKPGQAPRLLIYKVSNRFNGVPDRFSGSGSGTDFTLKISRVEAEDVGVYYCGQGTQVPYTFGQGTKLEIKRTVAAPSVFIFPPSDEQLKSGTASVVCLLNNFYPREAKVQWKVDNALQSGNSQESVTEQDSKDSTYSLSSTLTLSKADYEKHKVYACEVTHQGLSSPVTKSFNRGEC
notes: one-arm IgG1
B3: CE115HA000/GLS3000 S56R one-arm antibody (antibody, human IgG1, kappa, L234A L235A, N297A, name in Kabat numbering)
heavy: QVQLVESGGGVVQPGRSLRLSCAASGFTFSNAWMHWVRQAPGKGLEWVAQIKAKSNNYATYYAESVKGRFTISRDDSKNSLYLQMNSLKTEDTAVYYCRYVHYGAYYGVDAWGQGTTVTVSSASTKGPSVFPLAPSSKSTSGGTAALGCLVKDYFPEPVTVSWNSGALTSGVHTFPAVLQSSGLYSLSSVVTVPSSSLGTQTYICNVNHKPSNTKVDKKVEPKSCDKTHTCPPCPAPEAAGGPSVFLFPPKPKDTLMISRTPEVTCVVVDVSHEDPEVKFNWYVDGVEVHNAKTKPREEQYASTYRVVSVLTVLHQDWLNGKEYKCKVSNKALPAPIEKTISKAKGQPREPQVYTLPPSRCELTKNQVSLSCAVKGFYPSDIAVEWESNGQPENNYKTTPPVLDSDGSFFLVSKLTVDKSRWQQGNVFSCSVMHEALHNHYTQKSLSLSPDYKDDDDK
chain: EPKSSDKTHTCPPCPAPELLGGPSVFLFPPKPKDTLMISRTPEVTCVVVDVSHEDPEVKFNWYVDGVEVHNAKTKPREEQYNSTYRVVSVLTVLHQDWLNGKEYKCKVSNKALPAPIEKTISKAKGQPREPQVCTLPPSRDELTKNQVSLWCLVKGFYPSDIAVEWESNGQPENNYKTTPPVLDSDGSFFLYSKLTVDKSRWQQGNVFSCSVMHEALHNRYTQKSLSLSP
light: DIVMTQSPLSLPVTPGEPASISCRSSQSLVHSNRNTYLHWYQQKPGQAPRLLIYKVSNRFRGVPDRFSGSGSGTDFTLKISRVEAEDVGVYYCGQGTQVPYTFGQGTKLEIKRTVAAPSVFIFPPSDEQLKSGTASVVCLLNNFYPREAKVQWKVDNALQSGNSQESVTEQDSKDSTYSLSSTLTLSKADYEKHKVYACEVTHQGLSSPVTKSFNRGEC
notes: one-arm IgG1
B4: CE115HA000/GLS3000 S56M one-arm antibody (antibody, human IgG1, kappa, L234A L235A, N297A, name in Kabat numbering)
heavy: QVQLVESGGGVVQPGRSLRLSCAASGFTFSNAWMHWVRQAPGKGLEWVAQIKAKSNNYATYYAESVKGRFTISRDDSKNSLYLQMNSLKTEDTAVYYCRYVHYGAYYGVDAWGQGTTVTVSSASTKGPSVFPLAPSSKSTSGGTAALGCLVKDYFPEPVTVSWNSGALTSGVHTFPAVLQSSGLYSLSSVVTVPSSSLGTQTYICNVNHKPSNTKVDKKVEPKSCDKTHTCPPCPAPEAAGGPSVFLFPPKPKDTLMISRTPEVTCVVVDVSHEDPEVKFNWYVDGVEVHNAKTKPREEQYASTYRVVSVLTVLHQDWLNGKEYKCKVSNKALPAPIEKTISKAKGQPREPQVYTLPPSRCELTKNQVSLSCAVKGFYPSDIAVEWESNGQPENNYKTTPPVLDSDGSFFLVSKLTVDKSRWQQGNVFSCSVMHEALHNHYTQKSLSLSPDYKDDDDK
chain: EPKSSDKTHTCPPCPAPELLGGPSVFLFPPKPKDTLMISRTPEVTCVVVDVSHEDPEVKFNWYVDGVEVHNAKTKPREEQYNSTYRVVSVLTVLHQDWLNGKEYKCKVSNKALPAPIEKTISKAKGQPREPQVCTLPPSRDELTKNQVSLWCLVKGFYPSDIAVEWESNGQPENNYKTTPPVLDSDGSFFLYSKLTVDKSRWQQGNVFSCSVMHEALHNRYTQKSLSLSP
light: DIVMTQSPLSLPVTPGEPASISCRSSQSLVHSNRNTYLHWYQQKPGQAPRLLIYKVSNRFMGVPDRFSGSGSGTDFTLKISRVEAEDVGVYYCGQGTQVPYTFGQGTKLEIKRTVAAPSVFIFPPSDEQLKSGTASVVCLLNNFYPREAKVQWKVDNALQSGNSQESVTEQDSKDSTYSLSSTLTLSKADYEKHKVYACEVTHQGLSSPVTKSFNRGEC
notes: one-arm IgG1
B5: CE115HA000/GLS3000 S56Q one-arm antibody (antibody, human IgG1, kappa, L234A L235A, N297A, name in Kabat numbering)
heavy: QVQLVESGGGVVQPGRSLRLSCAASGFTFSNAWMHWVRQAPGKGLEWVAQIKAKSNNYATYYAESVKGRFTISRDDSKNSLYLQMNSLKTEDTAVYYCRYVHYGAYYGVDAWGQGTTVTVSSASTKGPSVFPLAPSSKSTSGGTAALGCLVKDYFPEPVTVSWNSGALTSGVHTFPAVLQSSGLYSLSSVVTVPSSSLGTQTYICNVNHKPSNTKVDKKVEPKSCDKTHTCPPCPAPEAAGGPSVFLFPPKPKDTLMISRTPEVTCVVVDVSHEDPEVKFNWYVDGVEVHNAKTKPREEQYASTYRVVSVLTVLHQDWLNGKEYKCKVSNKALPAPIEKTISKAKGQPREPQVYTLPPSRCELTKNQVSLSCAVKGFYPSDIAVEWESNGQPENNYKTTPPVLDSDGSFFLVSKLTVDKSRWQQGNVFSCSVMHEALHNHYTQKSLSLSPDYKDDDDK
chain: EPKSSDKTHTCPPCPAPELLGGPSVFLFPPKPKDTLMISRTPEVTCVVVDVSHEDPEVKFNWYVDGVEVHNAKTKPREEQYNSTYRVVSVLTVLHQDWLNGKEYKCKVSNKALPAPIEKTISKAKGQPREPQVCTLPPSRDELTKNQVSLWCLVKGFYPSDIAVEWESNGQPENNYKTTPPVLDSDGSFFLYSKLTVDKSRWQQGNVFSCSVMHEALHNRYTQKSLSLSP
light: DIVMTQSPLSLPVTPGEPASISCRSSQSLVHSNRNTYLHWYQQKPGQAPRLLIYKVSNRFQGVPDRFSGSGSGTDFTLKISRVEAEDVGVYYCGQGTQVPYTFGQGTKLEIKRTVAAPSVFIFPPSDEQLKSGTASVVCLLNNFYPREAKVQWKVDNALQSGNSQESVTEQDSKDSTYSLSSTLTLSKADYEKHKVYACEVTHQGLSSPVTKSFNRGEC
notes: one-arm IgG1
B6: CE115HA000/GLS3000 S56P one-arm antibody (antibody, human IgG1, kappa, L234A L235A, N297A, name in Kabat numbering)
heavy: QVQLVESGGGVVQPGRSLRLSCAASGFTFSNAWMHWVRQAPGKGLEWVAQIKAKSNNYATYYAESVKGRFTISRDDSKNSLYLQMNSLKTEDTAVYYCRYVHYGAYYGVDAWGQGTTVTVSSASTKGPSVFPLAPSSKSTSGGTAALGCLVKDYFPEPVTVSWNSGALTSGVHTFPAVLQSSGLYSLSSVVTVPSSSLGTQTYICNVNHKPSNTKVDKKVEPKSCDKTHTCPPCPAPEAAGGPSVFLFPPKPKDTLMISRTPEVTCVVVDVSHEDPEVKFNWYVDGVEVHNAKTKPREEQYASTYRVVSVLTVLHQDWLNGKEYKCKVSNKALPAPIEKTISKAKGQPREPQVYTLPPSRCELTKNQVSLSCAVKGFYPSDIAVEWESNGQPENNYKTTPPVLDSDGSFFLVSKLTVDKSRWQQGNVFSCSVMHEALHNHYTQKSLSLSPDYKDDDDK
chain: EPKSSDKTHTCPPCPAPELLGGPSVFLFPPKPKDTLMISRTPEVTCVVVDVSHEDPEVKFNWYVDGVEVHNAKTKPREEQYNSTYRVVSVLTVLHQDWLNGKEYKCKVSNKALPAPIEKTISKAKGQPREPQVCTLPPSRDELTKNQVSLWCLVKGFYPSDIAVEWESNGQPENNYKTTPPVLDSDGSFFLYSKLTVDKSRWQQGNVFSCSVMHEALHNRYTQKSLSLSP
light: DIVMTQSPLSLPVTPGEPASISCRSSQSLVHSNRNTYLHWYQQKPGQAPRLLIYKVSNRFPGVPDRFSGSGSGTDFTLKISRVEAEDVGVYYCGQGTQVPYTFGQGTKLEIKRTVAAPSVFIFPPSDEQLKSGTASVVCLLNNFYPREAKVQWKVDNALQSGNSQESVTEQDSKDSTYSLSSTLTLSKADYEKHKVYACEVTHQGLSSPVTKSFNRGEC
notes: one-arm IgG1

T1 sequence (P07766 23-126): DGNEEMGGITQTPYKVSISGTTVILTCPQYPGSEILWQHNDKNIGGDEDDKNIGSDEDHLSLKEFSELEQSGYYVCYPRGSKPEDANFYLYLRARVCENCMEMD

The test addresses T1, CD3 epsilon homodimer protein (UniProt P07766 23-126).
T1 construct: also called CD3 (CD3 epsilon)
Nature of the test: SPR (Biacore T200), CD3e homodimer on CM4 chip, antibody as analyte; KD ratio vs unaltered GLS3000.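 Further: CD3 epsilon homodimer amine-coupled to the sensor surface, antibodies injected as analyte at 25 °C with HBS-EP+ running buffer.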 A general note: Surface plasmon resonance follows binding to a sensor surface in real time, without labels.
B1: the “KD ratio to GLS3000” value was 1.03 ratio.

As to B2, the “KD ratio to GLS3000” value stood at 0.9 ratio.

As to B3, the “KD ratio to GLS3000” value was 1.15 ratio.

Take B4: the “KD ratio to GLS3000” value worked out at 0.93 ratio.

Take B5: the “KD ratio to GLS3000” value was 0.97 ratio.

As to B6, the “KD ratio to GLS3000” value was found to be 0.98 ratio.
